From patent publication US20220227866A1 (VELOSBIO, published 2022)
Values joined by “and” are separate entries in the source; they are usually repeats but may differ in a detail not shown here. Identical values can stand only once. Each block holds one binder with its values, some of them ahead of it.

Columns and labels:
[1] = molecular target: T1, soluble biotinylated human ROR1 extracellular domain (human, UniProt Q01973 30-406, biotinylated with EZ-Link Sulfo-NHS-LC-Biotin at a 1:5 molar ratio); test: ELISA, captured construct, biotinylated ROR1 titrated
T1 construct: Acro Biosystems cat; whole entry named; also called b-ROR1; soluble b-ROR1
T1 sequence (Q01973 30-406 limits assumed): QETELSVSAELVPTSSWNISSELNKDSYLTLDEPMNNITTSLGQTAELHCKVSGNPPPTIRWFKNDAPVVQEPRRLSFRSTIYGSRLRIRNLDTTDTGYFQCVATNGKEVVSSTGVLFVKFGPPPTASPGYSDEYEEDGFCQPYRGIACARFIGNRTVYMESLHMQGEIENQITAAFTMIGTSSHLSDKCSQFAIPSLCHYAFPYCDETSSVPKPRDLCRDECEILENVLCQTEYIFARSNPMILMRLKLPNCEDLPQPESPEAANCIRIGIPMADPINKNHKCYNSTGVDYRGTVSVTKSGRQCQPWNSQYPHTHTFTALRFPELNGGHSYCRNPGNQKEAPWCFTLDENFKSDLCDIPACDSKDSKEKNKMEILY
Procedure: To measure the binding of bispecific constructs to soluble ROR1, a 96-well Costar-3366 plate was coated with 50 μL/well of 2 μg/mL goat anti-human kappa (Southern Biotech cat. #2060-01) in PBS overnight at 4° C. The plate was rinsed once with PBS-T, blocked with 100 μL/well 5% M-P for 1 h at 25° C., rinsed once with PBS-T, and 2 μg/mL of the bispecific binding molecule was added and incubated for 1 h at 25° C. The plate was washed three times with PBS-T. Biotinylated ROR1 was diluted serially, 3-fold in 5% M-P and was incubated for 1 h at 25° C. (50 μL/well). The plate was washed three times with PBS-T. To detect the binding of b-ROR1, 50 μL/well Neutravidin-HRP (Pierce cat. #31030) diluted 1:5000 in 1% BSA-PBS was added for 1 h at 25° C. The plate was washed three times with PBS-T, then developed with 50 μL/well 1-Step Ultra TMB-ELISA (Thermo Scientific cat. #34028). The reaction was terminated by the addition of 2 N H₂SO₄ and the A450 was determined using a Spectramax plate reader.
The stronger binding observed with bivalent constructs versus monovalent constructs in cell assays and ELISAs in which the antigen is immobilized is consistent with an avidity effect. To determine if this was the case, binding to soluble monomeric ROR1 was assessed by immobilizing the bispecific binding molecules on a microtiter plate coated with goat anti-human kappa antibody and titrating biotinylated RORL. All bispecific binding molecules were active in this format (FIG. 7), and in most cases, there were no notable differences between monovalent and bivalent constructs.

[2] = molecular target: T2, human CD3 on Jurkat cells (human, UniProt P09693 23-182; P04234 22-171; P07766 23-207); test: flow cytometry on Jurkat cells
T2 construct: GenBank NP_000064.1, NP_000723.1, NP_000724.1
T2 sequence (P09693 23-182 limits assumed, chain 1 of 3): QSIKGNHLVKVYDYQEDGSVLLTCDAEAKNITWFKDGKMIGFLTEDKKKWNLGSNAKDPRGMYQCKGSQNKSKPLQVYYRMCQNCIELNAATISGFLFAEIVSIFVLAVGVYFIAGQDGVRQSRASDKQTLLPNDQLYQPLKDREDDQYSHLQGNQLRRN
T2 sequence (P04234 22-171 limits assumed, chain 2 of 3): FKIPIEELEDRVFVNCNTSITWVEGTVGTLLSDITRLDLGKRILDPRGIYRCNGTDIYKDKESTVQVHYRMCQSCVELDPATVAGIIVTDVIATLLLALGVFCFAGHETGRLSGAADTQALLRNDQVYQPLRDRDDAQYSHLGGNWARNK
T2 sequence (P07766 23-207 limits assumed, chain 3 of 3): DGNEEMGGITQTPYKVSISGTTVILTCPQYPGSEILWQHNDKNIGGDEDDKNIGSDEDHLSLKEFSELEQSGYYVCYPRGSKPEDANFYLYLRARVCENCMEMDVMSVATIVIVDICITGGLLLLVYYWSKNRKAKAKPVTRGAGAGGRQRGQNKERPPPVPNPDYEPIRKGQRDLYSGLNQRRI
Procedure: To quantitate CD3 binding, 2.5E5 Jurkat cells were used for each condition. A 2× stock of the cells was made by resuspending the cells to 5E6/mL by placing in 50 μL of PBS with 2% FBS. Next, the cells were diluted with an equal volume of 2× stock of the test bispecific binding molecule. The cells and antibody were co-incubated on ice for 20 min. The cells were then washed 3 times with 300 μL of FACS buffer and were resuspended in 100 μL of goat anti-human Fc-PE conjugate antibody (Invitrogen cat. #12499882) at 1:500 dilution and incubated on ice with reduced light for 20 min. The cells were then washed 3 times with 300 μL of FACS buffer and fixed with 2% paraformaldehyde for 10 min at 25° C. The cells were washed 2 times with 300 μL of FACS buffer and analyzed on a Miltenyi MACSQuant Analyzer.

[3] = molecular target: T3, recombinant human ROR1 extracellular domain (human, UniProt Q01973 30-406); test: ELISA, immobilised ROR1 ECD, construct titrated
T3 construct: Bought (Acro Biosystems cat. R01-H522Y); whole entry named; also called ROR1-ECD; immobilized ROR1
T3 sequence (Q01973 30-406 limits assumed): as the sequence (Q01973 30-406 limits assumed) above
Procedure: A 96-well Costar-3366 plate was coated with 50 μL/well of 2 μg/mL […] (Acro Biosystems cat. #R01-H522Y) in PBS overnight at 4° C. The plate was rinsed once with PBS containing 0.05% Tween 20 (PBS-T) and blocked with 100 μL/well of 5% non-fat milk in PBS (5% M-P) for 1 h at 25° C. Antibody samples were serially diluted 2-fold using 5% M-P and were incubated for 1 h at 25° C. (50 μL/well). The plate was washed three times with PBS-T and 50 μL/well anti-human kappa, HRP conjugate (Southern Biotech cat. #2060-05) diluted 10,000-fold in 5% M-P was added for 1 h at 25° C. The plate was washed three times with PBS-T, developed with 50 μL/well 1-Step Ultra TMB-ELISA (Thermo Scientific cat. #34028). The reaction was terminated by the addition of 2 N H₂SO₄ and the A450 was determined using a Spectramax plate reader.
Next, the binding of bispecific binding molecules to ROR was characterized by ELISA using recombinantly-expressed extracellular domain of RORL. ROR was immobilized on a microtiter plate, the bispecific binding molecules were titrated, and binding was quantitated with an anti-human kappa-HRP reagent. Consistent with the cell binding data, all constructs bound ROR1 in a concentration-dependent manner (FIG. 6). Moreover, monovalent ROR1 constructs 13-15 bound less tightly than all but two of the bivalent constructs.

[4] = molecular target: T4, human ROR1 on cells (human, UniProt Q01973 30-937); test: flow cytometry on JeKo-1 cells
T4 construct: Cell-surface ROR1; also called ROR1-transfected MEC cells; JeKo-1 cells
T4 sequence (Q01973 30-937 limits assumed): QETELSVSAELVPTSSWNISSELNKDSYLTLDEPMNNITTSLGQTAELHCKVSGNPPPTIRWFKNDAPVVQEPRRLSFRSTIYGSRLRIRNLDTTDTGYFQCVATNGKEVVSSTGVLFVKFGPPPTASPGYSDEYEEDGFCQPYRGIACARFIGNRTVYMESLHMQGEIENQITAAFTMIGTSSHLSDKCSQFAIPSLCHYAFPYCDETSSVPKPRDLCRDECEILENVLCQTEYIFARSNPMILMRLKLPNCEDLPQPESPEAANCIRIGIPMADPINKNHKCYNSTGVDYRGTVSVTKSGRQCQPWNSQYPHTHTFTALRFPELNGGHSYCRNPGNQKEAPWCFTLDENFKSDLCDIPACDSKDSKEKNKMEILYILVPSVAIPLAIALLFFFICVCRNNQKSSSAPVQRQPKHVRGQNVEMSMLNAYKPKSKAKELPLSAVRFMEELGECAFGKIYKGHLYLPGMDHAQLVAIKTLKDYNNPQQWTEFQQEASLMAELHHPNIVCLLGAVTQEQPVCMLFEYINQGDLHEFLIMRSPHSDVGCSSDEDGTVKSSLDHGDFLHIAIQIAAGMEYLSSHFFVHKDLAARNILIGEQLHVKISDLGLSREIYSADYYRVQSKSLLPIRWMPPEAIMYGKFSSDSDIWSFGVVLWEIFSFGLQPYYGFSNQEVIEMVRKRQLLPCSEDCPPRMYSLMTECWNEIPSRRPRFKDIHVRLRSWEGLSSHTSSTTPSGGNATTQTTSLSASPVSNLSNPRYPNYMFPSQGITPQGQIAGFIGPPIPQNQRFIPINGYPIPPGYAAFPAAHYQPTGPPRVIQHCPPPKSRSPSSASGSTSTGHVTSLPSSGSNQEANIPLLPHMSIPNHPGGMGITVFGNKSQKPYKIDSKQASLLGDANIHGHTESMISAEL
Procedure: ROR1 binding was quantitated using both ROR1-transfected MEC cells and JeKo-1 cells. For each condition, 2.5E5 cells were used. The cells were placed in 50 μL of PBS with 2% FBS. Next, the cells were diluted with an equal volume of 2× stock of the test bispecific binding molecule. The cells and antibody were co-incubated on ice for 20 min. The cells were then washed 3 times with 300 μL of FACS buffer and were resuspended in 100 μL of anti-human Fc-PE conjugate antibody (Invitrogen cat. #12499882) and incubated on ice with reduced light for 20 min. Subsequently, the cells were washed 3 times with 300 μL of FACS buffer and fixed with 2% paraformaldehyde for 10 min at 25° C. The cells then were washed 2 times with 300 μL of FACS buffer and analyzed on a Miltenyi MACSQuant Analyzer.
The influence of ROR expression levels on binding of the bispecific constructs was assessed by flow cytometry using JeKo-1 cells. JeKo-1 cells express lower levels of ROR (˜13,000 copies/cell) than the ROR1-transfected MEC cells (˜56,000 copies/cell). All constructs bound JeKo-1 cells (FIG. 5). […] Specifically, monovalent ROR1 constructs generally bound more weakly than the bivalent constructs (FIG. 5, Panel A, compare constructs 14 and 15 with other constructs; FIG. 5, Panel C, compare constructs 15-17 with other constructs).

[5] = molecular target: T4, human ROR1 on cells; test: cell-based or functional assay

- Kd [1]: 0.073 nM
- binding result [2]: binds
- Kd [3]: 0.092 nM
B1: Bispecific construct 11 (bispecific antibody, human IgG1, kappa)
heavy: not shown
light: DIVMTQTPLSLPVTPGEPASISCRASKSISKYLAWYQQKPGQAPRLLIYSGSTLQSGIPPRFSGSGYGTDFTLTINNIESEDAAYYFCQQHDESPYTFGEGTKVEIKRTVAAPSVFIFPPSDEQLKSGTASVVCLLNNFYPREAKVQWKVDNALQSGNSQESVTEQDSKDSTYSLSSTLTLSKADYEKHKVYACEVTHQGLSSPVTKSFNRGECGGGGSGGGGSQVQLVQSGAEVKKPGASVKVSCKASGYTFTRYTMHWVRQAPGQCLEWMGYINPSRGYTNYNQKFKDRVTLTTDKSSSTAYMELSSLRSEDTAVYYCARYYDDHYSLDYWGQGTLVTVSSGGGGSGGGGSGGGGSGGGGSDIQMTQSPSSLSASVGDRVTITCSASSSVSYMNWYQQKPGKAPKRLIYDTSKLASGVPSRFSGSGSGTDFTLTISSLQPEDFATYYCQQWSSNPFTFGCGTKLEIK
notes: disulfide-stabilized anti-CD3 scFv Ab9; ROR1 arm Ab1; valency 2/2

- Kd [1]: 0.094 nM
- binding result [2]: binds
- Kd [3]: 0.144 nM
B2: Bispecific construct 10 (bispecific antibody, human IgG1, kappa)
heavy: not shown
light: DIVMTQTPLSLPVTPGEPASISCRASKSISKYLAWYQQKPGQAPRLLIYSGSTLQSGIPPRFSGSGYGTDFTLTINNIESEDAAYYFCQQHDESPYTFGEGTKVEIKRTVAAPSVFIFPPSDEQLKSGTASVVCLLNNFYPREAKVQWKVDNALQSGNSQESVTEQDSKDSTYSLSSTLTLSKADYEKHKVYACEVTHQGLSSPVTKSFNRGECGGGGSGGGGSQVQLVQSGGGVVQPGRSLRLSCKASGYTFTRYTMHWVRQAPGKCLEWIGYINPSRGYTNYNQKVKDRFTISRDNSKNTLYLQMDSLRAEDTAVYYCARYYDDHYSLDYWGQGTTVTVSSGGGGSGGGGSGGGGSGGGGSDIQMTQSPSSLSASVGDRVTITCSASSSVSYMNWYQQKPGKAPKRWIYDTSKLASGVPSRFSGSGSGTDFTFTISSLQPEDIATYYCQQWSSNPFTFGCGTKLEIK
notes: disulfide-stabilized anti-CD3 scFv Ab8; ROR1 arm Ab1; valency 2/2

- Kd [1]: 0.086 nM
- binding result [2]: binds
- Kd [3]: 0.116 nM
B3: Bispecific construct 12 (bispecific antibody, human IgG1, kappa)
heavy: not shown
light: DIVMTQTPLSLPVTPGEPASISCRASKSISKYLAWYQQKPGQAPRLLIYSGSTLQSGIPPRFSGSGYGTDFTLTINNIESEDAAYYFCQQHDESPYTFGEGTKVEIKRTVAAPSVFIFPPSDEQLKSGTASVVCLLNNFYPREAKVQWKVDNALQSGNSQESVTEQDSKDSTYSLSSTLTLSKADYEKHKVYACEVTHQGLSSPVTKSFNRGECGGGGSGGGGSEVQLVESGGGLVQPGGSLRLSCAASGFTFNTYAMNWVRQAPGKCLEWVARIRSKYNNYATYYADSVKGRFTISRDDSKNTLYLQMNSLRAEDTAVYYCVRHGNFGNSYVSYFAYWGQGTTVTVSSGGGGSGGGGSGGGGSGGGGSEIVVTQSPATLSVSPGERATLSCRSSTGAVTAANYANWVQEKPGQAFRGLIGGANKRAPGVPARFSGSLSGDEATLTISSLQSEDFAVYYCALFYSNLWVFGCGTKLEIK
notes: disulfide-stabilized anti-CD3 scFv Ab10; ROR1 arm Ab1; valency 2/2

- EC50 (read off the curve) [4]: ~0.02 µg/mL
- Kd [1]: 0.105 nM
- binding result [2]: binds
- Kd [3]: 0.085 nM
B4: Bispecific construct 4 (bispecific antibody, human IgG1, kappa)
heavy: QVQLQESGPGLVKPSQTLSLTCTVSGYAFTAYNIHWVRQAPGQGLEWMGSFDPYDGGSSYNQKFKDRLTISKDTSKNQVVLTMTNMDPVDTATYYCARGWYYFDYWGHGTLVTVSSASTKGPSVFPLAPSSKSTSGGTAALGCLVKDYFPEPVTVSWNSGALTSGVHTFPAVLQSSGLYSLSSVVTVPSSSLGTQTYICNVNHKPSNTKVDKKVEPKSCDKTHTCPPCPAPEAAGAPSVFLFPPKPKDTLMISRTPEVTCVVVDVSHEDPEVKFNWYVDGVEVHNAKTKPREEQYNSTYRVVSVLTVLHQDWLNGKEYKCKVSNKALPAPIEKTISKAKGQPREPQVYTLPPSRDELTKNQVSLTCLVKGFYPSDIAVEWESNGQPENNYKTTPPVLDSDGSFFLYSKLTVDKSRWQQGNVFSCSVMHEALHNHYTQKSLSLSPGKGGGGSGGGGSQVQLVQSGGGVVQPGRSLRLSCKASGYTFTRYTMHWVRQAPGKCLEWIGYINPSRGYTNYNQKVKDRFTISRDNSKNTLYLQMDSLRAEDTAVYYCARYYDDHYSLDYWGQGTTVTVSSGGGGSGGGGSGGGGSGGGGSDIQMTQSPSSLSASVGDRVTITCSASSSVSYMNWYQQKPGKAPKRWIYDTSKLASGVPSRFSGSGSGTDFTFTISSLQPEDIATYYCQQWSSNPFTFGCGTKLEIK
light: DIVMTQTPLSLPVTPGEPASISCRASKSISKYLAWYQQKPGQAPRLLIYSGSTLQSGIPPRFSGSGYGTDFTLTINNIESEDAAYYFCQQHDESPYTFGEGTKVEIKRTVAAPSVFIFPPSDEQLKSGTASVVCLLNNFYPREAKVQWKVDNALQSGNSQESVTEQDSKDSTYSLSSTLTLSKADYEKHKVYACEVTHQGLSSPVTKSFNRGEC
notes: as for B2

- Kd [1]: 0.109 nM
- binding result [2]: binds
- Kd [3]: 0.408 nM
- EC50, LDH release, ROR1-transfected MEC [5]: 5 ng/mL and 40 pM
- Max. LDH Release, ROR1-transfected MEC [5]: 48%
B5: Bispecific construct 14 (bispecific antibody, human IgG1, kappa)
heavy 1: not shown
heavy 2: QVQLVQSGAEVKKPGASVKVSCKASGYTFTRYTMHWVRQAPGQGLEWMGYINPSRGYTNYNQKFKDRVTLTTDKSSSTAYMELSSLRSEDTAVYYCARYYDDHYSLDYWGQGTLVTVSSGGGGSGGGGSGGGGSGGGGSDIQMTQSPSSLSASVGDRVTITCSASSSVSYMNWYQQKPGKAPKRLIYDTSKLASGVPSRFSGSGSGTDFTLTISSLQPEDFATYYCQQWSSNPFTFGQGTKLEIKEPKSSDKTHTCPPCPAPEAAGAPSVFLFPPKPKDTLMISRTPEVTCVVVDVSHEDPEVKFNWYVDGVEVHNAKTKPREEQYNSTYRVVSVLTVLHQDWLNGKEYKCKVSNKALPAPIEKTISKAKGQPREPQVYTLPPSRDELTKNQVSLSCAVKGFYPSDIAVEWESNGQPENNYKTTPPVLDSDGSFFLVSKLTVDKSRWQQGNVFSCSVMHEALHNHYTQKSLSLSPGK
light: B4 light
notes: anti-CD3 scFv Ab9; ROR1 arm Ab1; valency 1/1

- Kd [1]: 0.147 nM
- binding result [2]: binds
- Kd [3]: 0.233 nM
B6: Bispecific construct 3 (bispecific antibody, human IgG1, kappa)
heavy: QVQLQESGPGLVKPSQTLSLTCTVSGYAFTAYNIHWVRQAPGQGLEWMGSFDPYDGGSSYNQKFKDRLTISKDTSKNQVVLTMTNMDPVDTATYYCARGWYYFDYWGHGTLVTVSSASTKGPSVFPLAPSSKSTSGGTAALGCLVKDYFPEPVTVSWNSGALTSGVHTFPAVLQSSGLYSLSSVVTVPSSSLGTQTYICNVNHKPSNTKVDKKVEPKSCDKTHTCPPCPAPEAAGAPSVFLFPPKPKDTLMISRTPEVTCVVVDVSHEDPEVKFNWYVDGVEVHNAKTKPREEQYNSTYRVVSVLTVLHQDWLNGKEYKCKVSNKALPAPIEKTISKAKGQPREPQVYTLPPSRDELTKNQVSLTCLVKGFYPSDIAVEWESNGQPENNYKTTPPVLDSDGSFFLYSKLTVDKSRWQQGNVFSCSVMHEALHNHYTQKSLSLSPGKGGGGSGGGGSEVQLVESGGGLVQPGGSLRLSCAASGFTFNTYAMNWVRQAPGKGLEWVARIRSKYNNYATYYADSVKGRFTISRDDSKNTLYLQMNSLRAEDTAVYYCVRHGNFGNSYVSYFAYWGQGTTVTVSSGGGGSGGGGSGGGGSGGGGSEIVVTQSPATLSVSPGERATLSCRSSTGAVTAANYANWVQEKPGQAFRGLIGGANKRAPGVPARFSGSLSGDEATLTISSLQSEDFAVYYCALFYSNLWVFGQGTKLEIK
light: B4 light
notes: anti-CD3 scFv Ab10 (SP34-based); ROR1 arm Ab1; valency 2/2

- Kd [1]: 0.082 nM
- binding result [2]: binds
- Kd [3]: 0.033 nM
B7: Bispecific construct 6 (bispecific antibody, human IgG1, kappa)
heavy: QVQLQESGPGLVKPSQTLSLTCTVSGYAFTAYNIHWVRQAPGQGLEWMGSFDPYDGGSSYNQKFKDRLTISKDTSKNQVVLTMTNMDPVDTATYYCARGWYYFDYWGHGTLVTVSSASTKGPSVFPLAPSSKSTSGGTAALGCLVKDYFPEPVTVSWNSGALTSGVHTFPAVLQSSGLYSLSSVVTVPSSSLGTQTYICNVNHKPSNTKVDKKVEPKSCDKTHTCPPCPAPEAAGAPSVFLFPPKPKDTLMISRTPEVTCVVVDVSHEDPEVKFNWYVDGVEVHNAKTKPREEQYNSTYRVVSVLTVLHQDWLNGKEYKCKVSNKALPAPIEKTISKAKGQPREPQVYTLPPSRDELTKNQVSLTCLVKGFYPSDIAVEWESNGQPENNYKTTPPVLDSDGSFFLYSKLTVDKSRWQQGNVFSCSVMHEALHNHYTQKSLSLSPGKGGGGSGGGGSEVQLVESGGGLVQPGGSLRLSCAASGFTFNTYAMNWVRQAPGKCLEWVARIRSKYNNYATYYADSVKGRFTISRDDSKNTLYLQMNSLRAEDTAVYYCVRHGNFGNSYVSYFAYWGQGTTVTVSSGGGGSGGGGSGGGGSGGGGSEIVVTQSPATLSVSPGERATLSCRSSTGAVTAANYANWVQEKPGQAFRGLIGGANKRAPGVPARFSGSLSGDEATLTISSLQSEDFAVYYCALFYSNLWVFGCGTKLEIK
light: B4 light
notes: as for B3

- EC50 (read off the curve) [4]: ~0.02 µg/mL
- Kd [1]: 0.07 nM
- binding result [2]: binds
- Kd [3]: 0.055 nM
B8: Bispecific construct 5 (bispecific antibody, human IgG1, kappa)
heavy: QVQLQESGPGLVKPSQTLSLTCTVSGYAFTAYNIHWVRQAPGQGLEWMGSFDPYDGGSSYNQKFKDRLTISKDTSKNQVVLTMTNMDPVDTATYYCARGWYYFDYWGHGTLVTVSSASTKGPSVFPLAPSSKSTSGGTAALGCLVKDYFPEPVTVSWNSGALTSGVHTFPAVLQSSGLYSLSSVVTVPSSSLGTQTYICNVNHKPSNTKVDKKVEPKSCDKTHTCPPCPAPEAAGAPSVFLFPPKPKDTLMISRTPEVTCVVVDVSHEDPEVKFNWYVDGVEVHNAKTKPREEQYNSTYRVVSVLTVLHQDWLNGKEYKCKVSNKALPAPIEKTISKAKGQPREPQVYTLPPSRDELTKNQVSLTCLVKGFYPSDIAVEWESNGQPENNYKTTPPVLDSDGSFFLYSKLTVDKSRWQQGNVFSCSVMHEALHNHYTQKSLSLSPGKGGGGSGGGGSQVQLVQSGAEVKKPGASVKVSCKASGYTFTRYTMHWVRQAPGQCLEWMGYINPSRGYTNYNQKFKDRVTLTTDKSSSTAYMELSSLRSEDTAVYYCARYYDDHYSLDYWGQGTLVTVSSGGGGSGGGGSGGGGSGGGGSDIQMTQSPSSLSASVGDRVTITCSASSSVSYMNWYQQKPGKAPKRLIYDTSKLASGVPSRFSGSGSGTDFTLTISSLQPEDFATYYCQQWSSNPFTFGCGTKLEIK
light: B4 light
notes: as for B1

- Kd [1]: 0.157 nM
- binding result [2]: binds
- Kd [3]: 0.301 nM
B9: Bispecific construct 15 (bispecific antibody, human IgG1, kappa)
heavy 1: not shown
heavy 2: EVQLVESGGGLVQPGGSLRLSCAASGFTFNTYAMNWVRQAPGKGLEWVARIRSKYNNYATYYADSVKGRFTISRDDSKNTLYLQMNSLRAEDTAVYYCVRHGNFGNSYVSYFAYWGQGTTVTVSSGGGGSGGGGSGGGGSGGGGSEIVVTQSPATLSVSPGERATLSCRSSTGAVTAANYANWVQEKPGQAFRGLIGGANKRAPGVPARFSGSLSGDEATLTISSLQSEDFAVYYCALFYSNLWVFGQGTKLEIKEPKSSDKTHTCPPCPAPEAAGAPSVFLFPPKPKDTLMISRTPEVTCVVVDVSHEDPEVKFNWYVDGVEVHNAKTKPREEQYNSTYRVVSVLTVLHQDWLNGKEYKCKVSNKALPAPIEKTISKAKGQPREPQVYTLPPSRDELTKNQVSLSCAVKGFYPSDIAVEWESNGQPENNYKTTPPVLDSDGSFFLVSKLTVDKSRWQQGNVFSCSVMHEALHNHYTQKSLSLSPGK
light: B4 light
notes: anti-CD3 scFv Ab10 (SP34-based); ROR1 arm Ab1; valency 1/1
